According to the supplement of paper PMC10201428:
± gives the standard deviation of the averaged measurements.

Test system: VchCAST RNA-guided transposition machinery (E. coli BL21(DE3) host, lacZ target)
Assay: relative integration efficiency (T-RL orientation) vs wild-type transposon end (log2 (normalized fold change)); transposon end mutated: right end (5 bp flank + 75 bp right end); higher = more efficient transposition
Description: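 Pooled, barcoded VchCAST (Tn6677) mini-transposon donor libraries; each variable transposon-end sequence sits in a fixed pDonor mini-transposon context (10-bp barcode and cargo not included). Left- or right-end libraries were co-transformed with pEffector (TniQ-Cascade, TnsABC, lacZ crRNA, T7, 0.1 mM IPTG) into E. coli BL21(DE3) and grown 18 h at 37 C. T-LR and T-RL junction amplicons were sequenced; output/input barcode fold change was normalised to the mean of four wild-type barcodes and log2-transformed. Two biological replicates; zero-count/undetected variants carry floor values (-10 / -15), censored here. Barcode uncoupling by PCR recombination adds noise.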

Point of comparison: “ACATTTGTAAAAAAAACCATACGTTGATTTTACGAAACCATACGCTGAAATAATCACAACCATAAATTGATATTGCCTCTGATCATAGTCAGACCAACATTGCTACGACCCGTATTCGCACCGACAC”, “relative integration efficiency (log2)” value -6.87 ± 0.53. Against it:
- ACATTACTTGATACAACCATAAAATGATAATTACACCCATAAATTGATAATTATCACACCCATAAATTGATATTGCCTCTGATCATAGTCAGACCAACATTGCTACGACCCGTATTCGCACCGACAC — within error, -6.45 ± 0.27
- ACATTTGTTGATGCAACCATAAAATGATAATTAATAATTATTTATAATCAGCAACTTAACCACAAAACACCCATAAATTGATAATTAACAAAACACCCATAAATTGATATTGCCTCTGATCATAGTC — higher, -4.62 ± 0.92
- ACATTTGTTAATAAAACCATACGTTGATTTTACGAAACCATACGCTGAAATAATCACACCCATAAATTGATATTGCCTCTGATCATAGTCAGACCAACATTGCTACGACCCGTATTCGCACCGACAC — within error, -6.57 ± 0.26
- ACATTTGTTGATACCCAACGCCCCGTCGCCGGCACAAACGCCCGGTCGCCGGCGACACAAACGCCCGGTCGCGGTAAGAGGATCATAGTCAGACCAACATTGCTACGACCCGTATTCGCACCGACAC — within error, -6.49 ± 0.44
- ACATTTGTTGATACAACACGCCCCGTCGCCGGCACAAACGCCCGGTCGCCGGCGACACAAACGCCCGGTCGCGGTAAGAGGATCATAGTCAGACCAACATTGCTACGACCCGTATTCGCACCGACAC — within error, -6.42 ± 0.17
- ACATTTGTTGATACAACCATAAAATGATAATTAATAATTATTTATAATCAGCAACTTAACCACAAAACACCCATAAATTGATAATTATCACACCCATAAATTGATATTGCCTCTGATCATAGTCAGA — higher, -4.6 ± 1
- ACATTTGTTGATATGTCAACCATAAAATGATAATTACACCCATAAATTGATAATTATCACACCCATAAATTGATATTGCCTCTGATCATAGTCAGACCAACATTGCTACGACCCGTATTCGCACCGA — higher, -2.13 ± 0.23
- ACATTGTGGGATACAACCATAAAATGATAATTACACCCATAAATTGATAATTATCACACCCATAAATTGATATTGCCTCTGATCATAGTCAGACCAACATTGCTACGACCCGTATTCGCACCGACAC — higher, -5.61 ± 0.22
- ACATTTGTAAAAAAAACCATACGTTGATTTTACGAAACCATACGCTGAAATAATCACACCCATAAATTGAAATTGCCTCTGATCATAGTCAGACCAACATTGCTACGACCCGTATTCGCACCGACAC — higher, -5.81 ± 0.093
- ACATAACATGATACAACCATAAAATGATAATTACACCCATAAATTGATAATTATCACACCCATAAATTGATATTGCCTCTGATCATAGTCAGACCAACATTGCTACGACCCGTATTCGCACCGACAC — within error, -5.71 ± 0.74
- ACATTTGTTGATACAACCATAAAATGATAATTAATAATTATTTATAATCAGCAACTTAACCACAAAACACCCATAAATTGATAATTAACAAAACACCCATAAATTGATATTGCTGTGAATCGAGTAT — higher, -5.86 ± 0.28
- ACATTTGTTGATATGTTGCAACCATAAAATGATAATTACACCCATAAATTGATAATTATCACACCCATAAATTGATATTGCCTCTGATCATAGTCAGACCAACATTGCTACGACCCGTATTCGCACC — within 0.2 log units, -6.84 ± 0.38
- ACATTAGTTCATACAACCATAAAATGATAATTACACCCATAAATTCATAATTATCACACCCAATTTAACTATAACGCTCTGATCATAGTCAGACCAACATTGCTACGACCCGTATTCGCACCGACAC — within 0.2 log units, -6.79 ± 0.48
- ACATTAGTCGATACAACCATAAAATGATAATTACACCCATAAATTCATAATTATCACACCCAATTTAACTATAACGCTCTGATCATAGTCAGACCAACATTGCTACGACCCGTATTCGCACCGACAC — within error, -7.36 ± 0.82
- ACATTTGTAAAAAAAACCATACGTTGATTTTACGAAACCATACGCTGAAATAATCACACCCATAAATTGATATTGCCTCTGATCATAGTCAGACCAACATTGCTACGACCCGTATTCGCACCGACAC — within error, -7.11 ± 0.15
- ACATTTGTAAAAAAAACCATACGTTGATTTTACGAAACCATACGCTGAAATAAAAACAACCATACCTTGAAATTGCTTATGATCATAGTCAGACCAACATTGCTACGACCCGTATTCGCACCGACAC — within error, -8.13 ± 1.3
- ACATTGGTCGATACAACCATAAAATGATAATTACACCCATAAATGGATAATTATCACACCCAATTTAACTATAACGCTCTGATCATAGTCAGACCAACATTGCTACGACCCGTATTCGCACCGACAC — within error, -7.16 ± 0.89
- ACATTGGTGGATACAACCATAAAATGATAATTACACCCATAAATTGATAATTATCACACCCAATTTAACTATAACGCTCTGATCATAGTCAGACCAACATTGCTACGACCCGTATTCGCACCGACAC — within 0.2 log units, -6.88 ± 0.39
- ACATTTGTTCAACCATAAAATGATAATTACACCCATAAATTGATAATTATCACACCCATAAATTGATATTGCCTCTGATCATAGTCAGACCAACATTGCTACGACCCGTATTCGCACCGACACTGAC — within error, -7.3 ± 0.12
- ACATTTGTTGATACAACCATCCCCGTCGCCGGCACAAACGCCCGGTCGCCGGCGACACAAACGCCCGGTCGCGGTAAGAGGATCATAGTCAGACCAACATTGCTACGACCCGTATTCGCACCGACAC — lower, -7.485 ± 0.063
- ACATTTGTTGATAACCAACGCCCCGTCGCCGGCCACCCATAAATTGATAATTATCACACCCATAAATTGATATTGCCTCTGATCATAGTCAGACCAACATTGCTACGACCCGTATTCGCACCGACAC — within error, -7.56 ± 0.64
- ACATTTGTTGATACAACCATAAAATGATAATTAATAATTATTTATAATCAGCAACTTAACCACAAAACACCCATAAATTGATAATTAACACACCCATAAATTGATATTGCCTCTGATCATAGTCAGA — higher, -5.33 ± 0.24
- ACATTTCAACATACAACCATAAAATGATAATTACACCCATAAATTGATAATTATCACACCCATAAATTGATATTGCCTCTGATCATAGTCAGACCAACATTGCTACGACCCGTATTCGCACCGACAC — higher, -6.21 ± 0.12
- ACATTTGTTCATACAACCCTAAAATGATAATTACACCCATAAATTCATAATTATCACCCCCAATTTAACTATAACGCTCTGATCATAGTCAGACCAACATTGCTACGACCCGTATTCGCACCGACAC — higher, -5.3 ± 0.43
- ACATTAGTGGATACAACCATAAAATGATAATTACACCCATAAATGGATCATTATCACACCCAATTTAACTATAACGCTCTGATCATAGTCAGACCAACATTGCTACGACCCGTATTCGCACCGACAC — within 0.2 log units, -6.91 ± 0.47
- ACATGGTGTGATACAACCATAAAATGATAATTACACCCATAAATTGATAATTATCACACCCATAAATTGATATTGCCTCTGATCATAGTCAGACCAACATTGCTACGACCCGTATTCGCACCGACAC — the same, -6.87 ± 0.18
- ACATTTGTTGATACAACCATACCCGGATAATTACACCCATACCGGGATAATTATCACACCCATACCGGGATATTGCCTCTGATCATAGTCAGACCAACATTGCTACGACCCGTATTCGCACCGACAC — within 0.2 log units, -6.7 ± 0.28
- ACATTTGTTGATATAATTATCATTTTATGGTTGTAATTATCATTTTATGGTTGTCACAACCATAAAATGATAATTACTCTGATCATAGTCAGACCAACATTGCTACGACCCGTATTCGCACCGACAC — higher, -6.264 ± 0.019
- ACATTGGTCGATACAACCATAAAATGATAATTACACCCATAAATGGATCATTATCACACCCAATTTAACTATAACGCTCTGATCATAGTCAGACCAACATTGCTACGACCCGTATTCGCACCGACAC — within error, -7.2 ± 0.28
- ACATTTGTTGATATAATTATCATTTTATGGTTGCAACCATAAAATGATAATTATCATAATTATCATTTTATGGTTGCTCTGATCATAGTCAGACCAACATTGCTACGACCCGTATTCGCACCGACAC — higher, -2.78 ± 0.3
- ACATTTGTTGATACAACCCGCCCCGTCGCCGGCACAAACGCCCGGTCGCCGGCGACACAAACGCCCGGTCGCGGTAAGAGGATCATAGTCAGACCAACATTGCTACGACCCGTATTCGCACCGACAC — lower, -8.51 ± 0.73
